Measurements published in patent US20250289885A1 (TRUSTEES OF BOSTON UNIVERSITY, published 2025).

Molecular target: T1, human Notch1-derived receptor overexpressed on CHO-K1 cells (human, UniProt P46531 19-1762, limits assumed)
T1 construct: Cells also express H2B-mTurq; also called Notch1 receptors
Test: fluorescence microscopy of JFX650-labelled probody on CHO-K1 cells overexpressing a human Notch1-derived receptor
Experimental: FIGS. 36A and 36B present data showing Cleavage-Dependent Binding of a Brontictuzumab-Based Probody to Notch1 Receptors. A probody containing a brontictuzumab-based scFv was fused to a TEV cleavable linker and a soluble form of the human Notch1 NRR. Probodies containing either (FIG. 36A) the V1667D NRR mutant NRR, or (FIG. 36B) wild-type NRR were tested. The probodies also contained a HaloTag for labeling with a JFX650 dye. Binding of the probody to Notch1 receptors was tested using uncleaved and TEV protease-cleaved probody. The evaluated cells were based on CHO-K1 celle overexpressing a human Notch1-derived receptor; cells also expressed H2B-mTurq as a fluorescent marker (inset). Brontictuzumab is an antibody that binds the NRR from Notch1 (NRR1). Brontictuzumab (aka OMP-52M51) is originally from Oncomed Pharmaceuticals. This antibody is distinct from the Genentech anti-NRR1 used in our receptor and other Notch1 probody designs.

T1 sequence (P46531 19-1762 limits assumed): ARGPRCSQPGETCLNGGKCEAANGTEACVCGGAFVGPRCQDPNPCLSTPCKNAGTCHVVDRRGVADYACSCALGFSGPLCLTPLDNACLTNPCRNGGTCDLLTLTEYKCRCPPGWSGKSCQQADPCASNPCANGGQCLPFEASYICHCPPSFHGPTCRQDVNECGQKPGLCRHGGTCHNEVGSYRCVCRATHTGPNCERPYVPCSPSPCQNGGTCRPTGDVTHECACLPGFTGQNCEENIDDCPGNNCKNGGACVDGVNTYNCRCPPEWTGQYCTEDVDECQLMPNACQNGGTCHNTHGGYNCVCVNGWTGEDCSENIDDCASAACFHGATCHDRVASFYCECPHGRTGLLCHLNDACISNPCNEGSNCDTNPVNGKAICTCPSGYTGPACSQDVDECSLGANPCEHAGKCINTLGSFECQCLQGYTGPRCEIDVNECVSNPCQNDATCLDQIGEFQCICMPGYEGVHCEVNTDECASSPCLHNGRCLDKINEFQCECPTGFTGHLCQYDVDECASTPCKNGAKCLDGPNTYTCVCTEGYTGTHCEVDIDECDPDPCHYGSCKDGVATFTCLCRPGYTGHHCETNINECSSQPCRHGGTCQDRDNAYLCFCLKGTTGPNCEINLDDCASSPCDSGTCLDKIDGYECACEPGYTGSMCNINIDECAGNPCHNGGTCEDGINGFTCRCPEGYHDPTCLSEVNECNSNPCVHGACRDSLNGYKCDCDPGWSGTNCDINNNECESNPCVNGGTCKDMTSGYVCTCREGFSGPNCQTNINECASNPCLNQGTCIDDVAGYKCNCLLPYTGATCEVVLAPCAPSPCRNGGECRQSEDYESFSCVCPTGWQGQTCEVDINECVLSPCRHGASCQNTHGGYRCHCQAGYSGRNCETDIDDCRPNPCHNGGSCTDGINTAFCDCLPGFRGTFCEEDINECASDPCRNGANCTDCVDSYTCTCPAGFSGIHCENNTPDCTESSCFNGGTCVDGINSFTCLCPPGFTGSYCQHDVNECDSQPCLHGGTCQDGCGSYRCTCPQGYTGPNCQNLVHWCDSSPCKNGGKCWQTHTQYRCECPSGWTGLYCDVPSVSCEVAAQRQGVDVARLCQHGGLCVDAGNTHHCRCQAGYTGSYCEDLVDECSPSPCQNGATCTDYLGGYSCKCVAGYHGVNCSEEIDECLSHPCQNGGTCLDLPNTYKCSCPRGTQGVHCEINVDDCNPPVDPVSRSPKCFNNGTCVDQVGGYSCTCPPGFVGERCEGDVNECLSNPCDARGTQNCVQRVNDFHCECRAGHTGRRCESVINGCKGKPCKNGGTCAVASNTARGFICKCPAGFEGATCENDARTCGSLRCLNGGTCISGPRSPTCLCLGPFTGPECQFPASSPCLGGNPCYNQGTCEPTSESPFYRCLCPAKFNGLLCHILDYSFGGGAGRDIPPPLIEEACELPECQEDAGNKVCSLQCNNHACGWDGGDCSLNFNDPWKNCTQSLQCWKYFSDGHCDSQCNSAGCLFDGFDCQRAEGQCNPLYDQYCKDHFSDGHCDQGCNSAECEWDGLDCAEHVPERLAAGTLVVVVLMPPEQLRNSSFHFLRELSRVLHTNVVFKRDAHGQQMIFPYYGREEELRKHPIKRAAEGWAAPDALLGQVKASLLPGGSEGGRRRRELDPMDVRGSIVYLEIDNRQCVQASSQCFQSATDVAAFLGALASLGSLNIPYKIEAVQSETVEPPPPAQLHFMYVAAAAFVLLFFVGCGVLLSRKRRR

B1: TEV-cleavable Anti-Notch1 probody, with brontictuzumab scFv, Wild-type NRR (HaloTag-brontictuzumab-scFv-TEVcs-hNRR1^WT), intact (uncleaved) (other)
chain: YPYDVPDYATGMAEIGTGFPFDPHYVEVLGERMHYVDVGPRDGTPVLFLHGNPTSSYVWRNIIPHVAPTHRCIAPDLIGMGKSDKPDLGYFFDDHVRFMDAFIEALGLEEVVLVIHDWGSALGFHWAKRNPERVKGIAFMEFIRPIPTWDEWPEFARETFQAFRTTDVGRKLIIDQNVFIEGTLPMGVVRPLTEVEMDHYREPFLNPVDREPLWRFPNELPIAGEPANIVALVEEYMDWLHQSPVPKLLFWGTPGVLIPPAEAARLAKSLPNCKAVDIGPGLNLLQEDNPDLIGSEIARWLSTLEISGGGGGSTGDGGGGQVQLVQSGAEVKKPGASVKISCKVSGYTLRGYWIEWVRQAPGKGLEWIGQILPGTGRTNYNEKFKGRVTMTADTSTDTAYMELSSLRSEDTAVYYCARFDGNYGYYAMDYWGQGTTVTVSSGGSSRSSSSGGGGSGGGGQAVVTQEPSLTVSPGGTVTLTCRSSTGAVTTSNYANWFQQKPGQAPRTLIGGTNNRAPGVPARFSGSLLGGKAALTLSGAQPEDEAEYYCALWYSNHWVFGGGTKLTVLGSNSGGTLEGGGSGENLYFQGGGGGRTGGGSEQKLISEEDLGGGSILDYSFGGGAGRDIPPPLIEEACELPECQEDAGNKVCSLQCNNHACGWDGGDCSLNFNDPWKNCTQSLQCWKYFSDGHCDSQCNSAGCLFDGFDCQRAEGQCNPLYDQYCKDHFSDGHCDQGCNSAECEWDGLDCAEHVPERLAAGTLVVVVLMPPEQLRNSSFHFLRELSRVLHTNVVFKRDAHGQQMIFPYYGREEELRKHPIKRAAEGWAAPDALLGQVKASLLPGGSEGGRRRRELDPMDVRGSIVYLEIDNRQCVQASSQCFQSATDVAAFLGALASLGSLNIPYKIEAVQSETVEPGSLVPRGSSHHHHHHGPV
modifications: HaloTag labelled with JFX650 dye
notes: also called Brontictuzumab-based probody, wild-type NRR
binding result: no binding
